The record followed here is the supplement of paper PMC9112550, “Optimization of the antimicrobial peptide Bac7 by deep mutational scanning” (BMC Biology, 2022).

The data set relates to Escherichia coli TOP10. The data set is described as follows: shrunken log2 fold change of peptide-encoding DNA abundance (4.5 h post-induction vs induction); higher = less antimicrobial activity (less host growth inhibition). Conditions: time post-induction: 4.5 h; library: site-saturation at positions 5, 18, 19, 20.
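Also: peptides expressed intracellularly from a pBAD plasmid library in pooled LB shake-flask culture, induced with 0.3% L-arabinose, DNA abundance read by NGS, three biological replicates, DESeq2 with apeglm shrinkage.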

For RRIRLRPPRLPRPRPRPTVAPRP, the “shrunken log2 fold change” value amounted to 0.0307.

Consider RRIRIRPPRLPRPRPRPCCRPRP, for which the “shrunken log2 fold change” value was -0.322.

As for RRIRFRPPRLPRPRPRPGIGPRP, the “shrunken log2 fold change” value is -0.0363.

As for RRIRRRPPRLPRPRPRPFKIPRP, the “shrunken log2 fold change” value is -0.00337.

As for RRIRKRPPRLPRPRPRPKGHPRP, the “shrunken log2 fold change” value was determined as 0.123.

Take RRIRGRPPRLPRPRPRPQDFPRP: the “shrunken log2 fold change” value stood at 0.178.

As to RRIRYRPPRLPRPRPRPEHKPRP, the “shrunken log2 fold change” value is -0.605.

In the case of RRIRSRPPRLPRPRPRPKCNPRP, the “shrunken log2 fold change” value is -0.174.

With RRIRNRPPRLPRPRPRPKQVPRP, the “shrunken log2 fold change” value was -0.173.

For RRIRWRPPRLPRPRPRPLNHPRP, the “shrunken log2 fold change” value is -0.176.

For the sequence RRIRNRPPRLPRPRPRPRYTPRP, the “shrunken log2 fold change” value was -0.56.

Regarding RRIRDRPPRLPRPRPRPDMAPRP, the “shrunken log2 fold change” value amounted to 0.219.

In the case of RRIRLRPPRLPRPRPRPWIWPRP, the “shrunken log2 fold change” value was -0.0106.

On to RRIRMRPPRLPRPRPRPYKVPRP, for which the “shrunken log2 fold change” value is -0.0176.

As to RRIRVRPPRLPRPRPRPKYWPRP, the “shrunken log2 fold change” value was -0.126.

RRIRPRPPRLPRPRPRPYSFPRP: the “shrunken log2 fold change” value was -0.796.

In the case of RRIRIRPPRLPRPRPRPYPGPRP, the “shrunken log2 fold change” value was -0.0674.

In the case of RRIRARPPRLPRPRPRPGHRPRP, the “shrunken log2 fold change” value is 0.033.

As to RRIRVRPPRLPRPRPRPVPVPRP, the “shrunken log2 fold change” value is 0.0573.

Take RRIRERPPRLPRPRPRPDCRPRP: the “shrunken log2 fold change” value was determined as 0.0169.

RRIRIRPPRLPRPRPRPPMEPRP: the “shrunken log2 fold change” value is -0.0294.

In the case of RRIRIRPPRLPRPRPRPFIHPRP, the “shrunken log2 fold change” value is -0.872.

On to RRIRGRPPRLPRPRPRPADEPRP, for which the “shrunken log2 fold change” value was 0.239.

Consider RRIRTRPPRLPRPRPRPLRMPRP, for which the “shrunken log2 fold change” value is -0.0962.

With RRIRLRPPRLPRPRPRPGASPRP, the “shrunken log2 fold change” value was 0.642.

Consider RRIRMRPPRLPRPRPRPGDRPRP, for which the “shrunken log2 fold change” value worked out at 0.786.

For RRIRMRPPRLPRPRPRPPHVPRP, the “shrunken log2 fold change” value is 0.865.

On to RRIRYRPPRLPRPRPRPGYTPRP, for which the “shrunken log2 fold change” value stood at 0.0577.

Take RRIRPRPPRLPRPRPRPRLYPRP: the “shrunken log2 fold change” value came to 0.127.

For RRIRTRPPRLPRPRPRPTRLPRP, the “shrunken log2 fold change” value stood at 0.126.

For the sequence RRIRNRPPRLPRPRPRPYNEPRP, the “shrunken log2 fold change” value was -0.11.

In the case of RRIRPRPPRLPRPRPRPWWKPRP, the “shrunken log2 fold change” value was -0.0424.

Regarding RRIRPRPPRLPRPRPRPSHLPRP, the “shrunken log2 fold change” value is -0.168.

For the sequence RRIRQRPPRLPRPRPRPRQEPRP, the “shrunken log2 fold change” value stood at 0.0978.

For RRIRYRPPRLPRPRPRPNHVPRP, the “shrunken log2 fold change” value is -0.219.

For the sequence RRIRFRPPRLPRPRPRPCCAPRP, the “shrunken log2 fold change” value was -0.0621.

For RRIRERPPRLPRPRPRPYGTPRP, the “shrunken log2 fold change” value was -0.0949.

RRIRGRPPRLPRPRPRPYMNPRP: the “shrunken log2 fold change” value was -0.23.

In the case of RRIRYRPPRLPRPRPRPMMQPRP, the “shrunken log2 fold change” value is -1.94.

For RRIRMRPPRLPRPRPRPLIFPRP, the “shrunken log2 fold change” value was -0.139.

Regarding RRIRARPPRLPRPRPRPGRCPRP, the “shrunken log2 fold change” value was 0.745.

Consider RRIRKRPPRLPRPRPRPKVKPRP, for which the “shrunken log2 fold change” value worked out at 0.116.

As to RRIRFRPPRLPRPRPRPFILPRP, the “shrunken log2 fold change” value was -0.749.

Take RRIRIRPPRLPRPRPRPAFKPRP: the “shrunken log2 fold change” value was -0.317.

Take RRIRYRPPRLPRPRPRPNMMPRP: the “shrunken log2 fold change” value is -0.645.

For RRIRHRPPRLPRPRPRPRQPPRP, the “shrunken log2 fold change” value turned out to be 0.474.

RRIRGRPPRLPRPRPRPQDCPRP: the “shrunken log2 fold change” value is 0.0863.

Take RRIRPRPPRLPRPRPRPGWGPRP: the “shrunken log2 fold change” value was found to be 0.458.

With RRIRGRPPRLPRPRPRPQRAPRP, the “shrunken log2 fold change” value stood at 0.466.

As to RRIRFRPPRLPRPRPRPDTNPRP, the “shrunken log2 fold change” value was -0.208.

On to RRIRFRPPRLPRPRPRPPALPRP, for which the “shrunken log2 fold change” value was 0.509.

RRIRNRPPRLPRPRPRPCKAPRP: the “shrunken log2 fold change” value is -0.1.

For the sequence RRIRDRPPRLPRPRPRPVPQPRP, the “shrunken log2 fold change” value is 0.0622.

Take RRIRKRPPRLPRPRPRPPHEPRP: the “shrunken log2 fold change” value came out at 0.491.

Consider RRIRMRPPRLPRPRPRPYMTPRP, for which the “shrunken log2 fold change” value is -0.178.

For the sequence RRIRRRPPRLPRPRPRPEIPPRP, the “shrunken log2 fold change” value is 0.163.

RRIRSRPPRLPRPRPRPAQVPRP: the “shrunken log2 fold change” value came to 0.09.

With RRIRFRPPRLPRPRPRPRVCPRP, the “shrunken log2 fold change” value turned out to be 0.152.

As to RRIRNRPPRLPRPRPRPENHPRP, the “shrunken log2 fold change” value is -0.124.

On to RRIRCRPPRLPRPRPRPQKCPRP, for which the “shrunken log2 fold change” value was -0.0526.

As for RRIRLRPPRLPRPRPRPRFIPRP, the “shrunken log2 fold change” value is -0.243.

With RRIRSRPPRLPRPRPRPDLDPRP, the “shrunken log2 fold change” value came to 0.152.

For RRIRDRPPRLPRPRPRPCMEPRP, the “shrunken log2 fold change” value was -0.0179.

Turning to RRIRMRPPRLPRPRPRPMWYPRP, the “shrunken log2 fold change” value was -0.288.

Regarding RRIRSRPPRLPRPRPRPQCYPRP, the “shrunken log2 fold change” value is -0.569.

In the case of RRIRERPPRLPRPRPRPLIVPRP, the “shrunken log2 fold change” value was -0.632.

As for RRIRFRPPRLPRPRPRPSCAPRP, the “shrunken log2 fold change” value is -0.22.

As for RRIRSRPPRLPRPRPRPARFPRP, the “shrunken log2 fold change” value was 0.181.

Turning to RRIRCRPPRLPRPRPRPKCQPRP, the “shrunken log2 fold change” value stood at 0.201.

For RRIRTRPPRLPRPRPRPIYKPRP, the “shrunken log2 fold change” value is -1.02.

As for RRIRWRPPRLPRPRPRPSEQPRP, the “shrunken log2 fold change” value is -0.247.

On to RRIRCRPPRLPRPRPRPEDHPRP, for which the “shrunken log2 fold change” value was -0.0393.

Take RRIRARPPRLPRPRPRPTHEPRP: the “shrunken log2 fold change” value came to 0.622.

Turning to RRIRNRPPRLPRPRPRPKCNPRP, the “shrunken log2 fold change” value is -0.819.

For the sequence RRIRKRPPRLPRPRPRPDYNPRP, the “shrunken log2 fold change” value was -0.0745.

Regarding RRIRSRPPRLPRPRPRPLKPPRP, the “shrunken log2 fold change” value was 0.0304.

As to RRIRVRPPRLPRPRPRPDQWPRP, the “shrunken log2 fold change” value is -0.0427.

In the case of RRIRYRPPRLPRPRPRPCNIPRP, the “shrunken log2 fold change” value is -0.463.

With RRIRTRPPRLPRPRPRPTKPPRP, the “shrunken log2 fold change” value was 0.0402.

As for RRIRFRPPRLPRPRPRPQGHPRP, the “shrunken log2 fold change” value stood at 0.0395.

In the case of RRIRFRPPRLPRPRPRPMMRPRP, the “shrunken log2 fold change” value came out at 0.126.

In the case of RRIRLRPPRLPRPRPRPDHMPRP, the “shrunken log2 fold change” value is -0.0422.

As for RRIRLRPPRLPRPRPRPAYLPRP, the “shrunken log2 fold change” value was -0.304.

On to RRIRKRPPRLPRPRPRPGFSPRP, for which the “shrunken log2 fold change” value amounted to 0.297.

With RRIRGRPPRLPRPRPRPGWIPRP, the “shrunken log2 fold change” value was determined as 0.117.

Turning to RRIRFRPPRLPRPRPRPPAQPRP, the “shrunken log2 fold change” value was 1.02.

RRIRYRPPRLPRPRPRPGKDPRP: the “shrunken log2 fold change” value was -0.148.

With RRIRGRPPRLPRPRPRPWKRPRP, the “shrunken log2 fold change” value was -0.0496.

As to RRIRSRPPRLPRPRPRPKCSPRP, the “shrunken log2 fold change” value was -0.122.

With RRIRKRPPRLPRPRPRPKVVPRP, the “shrunken log2 fold change” value worked out at 0.223.

On to RRIRGRPPRLPRPRPRPSFYPRP, for which the “shrunken log2 fold change” value turned out to be 0.00205.
